Residues, ends and D or L forms follow the SMILES beside them.
Assays:
Type in all cases: cell-based
[1] = molecular target: T1, NPSR receptor (Homo sapiens, UniProt Q6W5P4); assay: NFAT-luciferase reporter assay in HEK293T cells over-expressing NPSR (intracellular Ca2+ signaling); details: HEK293T co-transfected with NFAT-luciferase reporter (50 ng), pSV-β-Gal (5 ng), NPSR plasmid (50 ng), after 36 h, 18 h with peptide in serum-free media, normalized to β-galactosidase, at least three experiments in triplicates, Graphpad Prism 5.0; for EC50: read-out: Agonist effect (NFAT) EC50
T1 construct: Full length cDNA for the NPSR receptor was purchased from OriGene Technologies; host or cells: HEK293T
T1 sequence (Q6W5P4 1-371): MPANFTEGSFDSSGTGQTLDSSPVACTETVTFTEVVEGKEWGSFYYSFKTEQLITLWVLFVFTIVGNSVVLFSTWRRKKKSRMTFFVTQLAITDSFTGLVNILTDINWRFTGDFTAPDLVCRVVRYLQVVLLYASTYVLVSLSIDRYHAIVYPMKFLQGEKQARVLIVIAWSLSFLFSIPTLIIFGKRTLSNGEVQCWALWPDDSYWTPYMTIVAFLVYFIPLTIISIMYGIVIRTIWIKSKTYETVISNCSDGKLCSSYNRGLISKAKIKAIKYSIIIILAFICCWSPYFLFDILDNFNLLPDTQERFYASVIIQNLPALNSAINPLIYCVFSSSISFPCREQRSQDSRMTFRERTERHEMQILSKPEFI
Experimental: (§1) HEK293T cells seeded in 24-well plates were co-transfected with different luciferase reporters (50 ng), the pSV-β-Gal plasmid (5 ng), and the NPSR receptor plasmid (50 ng). After 36 h, cells were cultured in serum-free media for another 18 h with increasing doses of the various NPS peptides. Luciferase activities were determined using the luciferase assay kit (Promega) and normalized using β-galactosidase activities. All experiments were performed at least three times in triplicates. Data (EC50) were analyzed using Graphpad Prism 5.0.
(§2) Figure 2 Sequence comparison and lower NPSR receptor signaling ability of the L^6-NPS variant. (A) Alignment of NPS among diverse vertebrate species. Sequences were aligned by the ClustalW program. Stars indicate identical amino acids and double dots (:) indicate conserved amino acids. The predicted convertase cleavage sites (KR) were underlined and the 6th amino acid “V” or “L” in the mature peptide region are shown in bold. (B) Comparison of NPS and L^6-NPS signaling based on the CRE-luciferase assay. (C) Comparison of NPS and L^6-NPS signaling based on the NFAT luciferase assay. HEK293T cells seeded in 24-well plates were co-transfected with different luciferase reporters (50 ng), the pSV-β-Gal plasmid (5 ng), and the NPSR receptor plasmid (50 ng). After 36 h, cells were cultured in serum-free media for another 18 h with increasing doses of the various NPS peptides. EC50 values were analyzed using Graphpad Prism 5.0.
(§3) To compare the bioactivity of wide type NPS (NPS) and the SNP variant (L^6-NPS), we monitored their receptor-activation activities in vitro using HEK293T cells over-expressing NPSR. Because NPS activates NPSR by increasing cAMP production and intracellular Ca^2+ signaling, [10], we used CRE- and NFAT- response elements to measure cAMP and intracellular Ca2+ signaling respectively, [36]. As expected, treatment with wide-type NPS led to dose-dependent stimulation of both CRE- and NFAT- luciferase activities (Fig. 2B and C). We also performed the relaxin-LGR7 ligand-receptor pair as a positive control for the CRE-luciferase assay. Also, gastrin-CCKB ligand-receptor pair was used as a positive control for the SRE-luciferase assay. Cells transfected with the empty vector were also treated with NPS to serve as a negative control (Fig. S4).

[2] = molecular target: T1, NPSR receptor; assay: CRE-luciferase reporter assay in HEK293T cells over-expressing NPSR (cAMP signaling); details: for EC50 / Agonist effect (CRE) EC50: HEK293T co-transfected with CRE-luciferase reporter (50 ng), pSV-β-Gal (5 ng), NPSR plasmid (50 ng), after 36 h, 18 h with peptide in serum-free media, normalized to β-galactosidase, at least three experiments in triplicates, apparent EC50, Graphpad Prism 5.0; for EC50: read-out: Agonist effect (CRE) EC50; for bioactivity in the CRE-luciferase assay (in words): 6th position substitution mutants, HEK293T with NPSR, Fig. 3A
Experimental: as §1, §2, §3

[3] = molecular target: T2, LGR7 (Homo sapiens, UniProt Q9HBX9); assay: CRE-luciferase assay, relaxin-LGR7 ligand-receptor pair (positive control); details: Fig. S4
T2 construct: expressed in transfected cells; host or cells: HEK293T (inferred from the general luciferase protocol)
T2 sequence (Q9HBX9 1-757): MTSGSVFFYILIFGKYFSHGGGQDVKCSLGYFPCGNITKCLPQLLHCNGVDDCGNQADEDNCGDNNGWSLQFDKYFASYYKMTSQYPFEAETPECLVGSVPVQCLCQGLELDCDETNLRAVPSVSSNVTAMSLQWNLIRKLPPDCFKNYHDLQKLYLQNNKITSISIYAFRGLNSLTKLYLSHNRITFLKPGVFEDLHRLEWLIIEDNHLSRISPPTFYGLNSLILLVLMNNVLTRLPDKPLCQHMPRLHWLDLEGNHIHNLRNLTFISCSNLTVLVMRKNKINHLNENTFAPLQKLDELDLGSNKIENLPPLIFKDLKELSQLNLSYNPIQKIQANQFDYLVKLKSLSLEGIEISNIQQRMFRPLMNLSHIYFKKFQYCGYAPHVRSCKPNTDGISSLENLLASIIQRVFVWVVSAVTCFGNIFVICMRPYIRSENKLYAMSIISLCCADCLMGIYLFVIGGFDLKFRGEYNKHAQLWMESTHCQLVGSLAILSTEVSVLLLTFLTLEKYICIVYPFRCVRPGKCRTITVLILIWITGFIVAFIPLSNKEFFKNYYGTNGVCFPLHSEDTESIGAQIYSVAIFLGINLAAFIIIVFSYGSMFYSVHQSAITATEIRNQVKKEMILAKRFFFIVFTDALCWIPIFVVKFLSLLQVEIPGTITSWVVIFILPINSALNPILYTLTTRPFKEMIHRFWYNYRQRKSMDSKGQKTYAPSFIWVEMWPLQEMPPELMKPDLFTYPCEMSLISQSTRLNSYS
Text: as §3
Supplementary file pone.0083009.s004.pdf: Figure S4 Positive control and negative control for the CRE- and SRE- luciferase assay. […] (PDF) Click here for additional data file.

Molecule	EC50 [1] [nM]	EC50 [2] [nM]	stimulation of CRE-luciferase via LGR7 [3]	Agonist effect (NFAT) EC50 [1]	bioactivity in the CRE-luciferase assay (in words) [2]	Agonist effect (CRE) EC50 [2]
K^6-NPS: NPS mutant with lysine at the 6th position (SFRNGKGTGMKKTSFQRAKS; Neuropeptide S; UniProt P0C0P6 70-89, looked up, variant V6K)	–	–	–	inactive	complete loss of bioactivity	inactive
N^6-NPS: NPS mutant with asparagine at the 6th position (SFRNGNGTGMKKTSFQRAKS; Neuropeptide S; UniProt P0C0P6 70-89, looked up, variant V6N)	–	–	–	inactive	complete loss of bioactivity	inactive
CSCC[C@H](NC(=O)CNC(=O)[C@@H](NC(=O)CNC(=O)[C@H](C)NC(=O)CNC(=O)[C@H](CC(N)=O)NC(=O)[C@H](CCCNC(=N)N)NC(=O)[C@H](Cc1ccccc1)NC(=O)[C@@H](N)CO)[C@@H](C)O)C(=O)N[C@@H](CCCCN)C(=O)N[C@@H](CCCCN)C(=O)N[C@H](C(=O)N[C@@H](CO)C(=O)N[C@@H](Cc1ccccc1)C(=O)N[C@@H](CCC(N)=O)C(=O)N[C@@H](CCCNC(=N)N)C(=O)N[C@@H](C)C(=O)N[C@@H](CCCCN)C(=O)N[C@@H](CO)C(=O)O)[C@@H](C)O [A^6-NPS] (H-SFRNGAGTGMKKTSFQRAKS-OH)	958	534	–	–	–	–
CSCC[C@H](NC(=O)CNC(=O)[C@@H](NC(=O)CNC(=O)[C@@H](NC(=O)CNC(=O)[C@H](CC(N)=O)NC(=O)[C@H](CCCNC(=N)N)NC(=O)[C@H](Cc1ccccc1)NC(=O)[C@@H](N)CO)C(C)C)[C@@H](C)O)C(=O)N[C@@H](CCCCN)C(=O)N[C@@H](CCCCN)C(=O)N[C@H](C(=O)N[C@@H](CO)C(=O)N[C@@H](Cc1ccccc1)C(=O)N[C@@H](CCC(N)=O)C(=O)N[C@@H](CCCNC(=N)N)C(=O)N[C@@H](C)C(=O)N[C@@H](CCCCN)C(=O)N[C@@H](CO)C(=O)O)[C@@H](C)O [NPS, Neuropeptide S, reference compound] (H-SFRNGVGTGMKKTSFQRAKS-OH)	44.6	36.9	–	–	–	–

Second part, the molecule after the results:

EC50 [1] [nM]	EC50 [2] [nM]	stimulation of CRE-luciferase via LGR7 [3]	Agonist effect (NFAT) EC50 [1]	bioactivity in the CRE-luciferase assay (in words) [2]	Agonist effect (CRE) EC50 [2]	Molecule
280	174	–	–	–	–	CC[C@H](C)[C@H](NC(=O)CNC(=O)[C@H](CC(N)=O)NC(=O)[C@H](CCCNC(=N)N)NC(=O)[C@H](Cc1ccccc1)NC(=O)[C@@H](N)CO)C(=O)NCC(=O)N[C@H](C(=O)NCC(=O)N[C@@H](CCSC)C(=O)N[C@@H](CCCCN)C(=O)N[C@@H](CCCCN)C(=O)N[C@H](C(=O)N[C@@H](CO)C(=O)N[C@@H](Cc1ccccc1)C(=O)N[C@@H](CCC(N)=O)C(=O)N[C@@H](CCCNC(=N)N)C(=O)N[C@@H](C)C(=O)N[C@@H](CCCCN)C(=O)N[C@@H](CO)C(=O)O)[C@@H](C)O)[C@@H](C)O [I^6-NPS] (H-SFRNGIGTGMKKTSFQRAKS-OH)
–	–	normal stimulation	–	–	–	relaxin
–	–	–	inactive	complete loss of bioactivity	inactive	F^6-NPS: NPS mutant with phenylalanine at the 6th position (SFRNGFGTGMKKTSFQRAKS; Neuropeptide S; UniProt P0C0P6 70-89, looked up, variant V6F)
975	586	–	–	–	–	CSCC[C@H](NC(=O)CNC(=O)[C@@H](NC(=O)CNC(=O)[C@H](CC(C)C)NC(=O)CNC(=O)[C@H](CC(N)=O)NC(=O)[C@H](CCCNC(=N)N)NC(=O)[C@H](Cc1ccccc1)NC(=O)[C@@H](N)CO)[C@@H](C)O)C(=O)N[C@@H](CCCCN)C(=O)N[C@@H](CCCCN)C(=O)N[C@H](C(=O)N[C@@H](CO)C(=O)N[C@@H](Cc1ccccc1)C(=O)N[C@@H](CCC(N)=O)C(=O)N[C@@H](CCCNC(=N)N)C(=O)N[C@@H](C)C(=O)N[C@@H](CCCCN)C(=O)N[C@@H](CO)C(=O)O)[C@@H](C)O [L^6-NPS] (H-SFRNGLGTGMKKTSFQRAKS-OH)
–	–	–	inactive	complete loss of bioactivity	inactive	D^6-NPS: NPS mutant with aspartic acid at the 6th position (SFRNGDGTGMKKTSFQRAKS; Neuropeptide S; UniProt P0C0P6 70-89, looked up, variant V6D)

Reference: paper PMC3873911 (PLoS ONE, 2013)
